Results: publication PMC12276362 (Nature Communications, 2025)

Molecular target: rhAMPK protein (AMPKα2, Abiocenter Biotechnology) (human (printed only as the prefix rh), UniProt P54646 1-552)
Test: BLI

Sequence of rhAMPK protein (AMPKα2, Abiocenter Biotechnology) (P54646 whole entry): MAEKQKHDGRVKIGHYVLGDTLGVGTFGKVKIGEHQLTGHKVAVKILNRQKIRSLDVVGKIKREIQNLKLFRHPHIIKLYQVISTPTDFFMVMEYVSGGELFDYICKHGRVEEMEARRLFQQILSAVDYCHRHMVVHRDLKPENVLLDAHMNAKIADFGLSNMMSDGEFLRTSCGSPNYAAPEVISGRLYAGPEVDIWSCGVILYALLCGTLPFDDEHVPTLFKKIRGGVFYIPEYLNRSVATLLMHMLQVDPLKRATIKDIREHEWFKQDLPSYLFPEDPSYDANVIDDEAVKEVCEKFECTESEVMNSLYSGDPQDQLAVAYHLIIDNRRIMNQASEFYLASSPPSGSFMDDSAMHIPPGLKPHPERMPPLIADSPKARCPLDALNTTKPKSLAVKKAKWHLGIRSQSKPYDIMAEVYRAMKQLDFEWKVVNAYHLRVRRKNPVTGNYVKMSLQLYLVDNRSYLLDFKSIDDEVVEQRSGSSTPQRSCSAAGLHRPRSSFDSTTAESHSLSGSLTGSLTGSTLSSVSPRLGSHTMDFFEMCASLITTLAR

Kd: 55.6 nM
B1: rhOTUD1 protein (enzyme, human (printed only as the prefix rh), UniProt Q5VV17 1-481, looked up)
chain: MQLYSSVCTHYPAGAPGPTAAAPAPPAAATPFKVSLQPPGAAGAAPEPETGECQPAAAAEHREAAAVPAAKMPAFSSCFEVVSGAAAPASAAAGPPGASCKPPLPPHYTSTAQITVRALGADRLLLHGPDPVPGAAGSAAAPRGRCLLLAPAPAAPVPPRRGSSAWLLEELLRPDCPEPAGLDATREGPDRNFRLSEHRQALAAAKHRGPAATPGSPDPGPGPWGEEHLAERGPRGWERGGDRCDAPGGDAARRPDPEAEAPPAGSIEAAPSSAAEPVIVSRSDPRDEKLALYLAEVEKQDKYLRQRNKYRFHIIPDGNCLYRAVSKTVYGDQSLHRELREQTVHYIADHLDHFSPLIEGDVGEFIIAAAQDGAWAGYPELLAMGQMLNVNIHLTTGGRLESPTVSTMIHYLGPEDSLRPSIWLSWLSNGHYDAVFDHSYPNPEYDNWCKQTQVQRKRDEELAKSMAISLSKMYIEQNACS
modifications: biotin (EZ-Link Sulfo-NHS-LC-Biotinylation Kit)
